The values that follow come from patent publication US20130288923, “Nucleotide-Based Probes and Methods for the Detection and Quantification of Macromolecules and Other Analytes” (THE REGENTS OF THE UNIVERSITY OF CALIFORNIA, published 2013).

This data set has as its target TATA binding protein (TBP) (UniProt P20226 P20226:1-339). The experiment in a line: square wave voltammetry; nM detection in buffer and in 250 ug/mL HeLa nuclear extract. As to conditions: tags: recombinantly expressed and purified (Bonham 2009); label: 5'-C6-thiol (gold electrode), internal methylene blue; double stem-loop / single stem-loop switch containing TBP recognition duplex. On the procedure:
The ability of the TBP transcription factor electrochemical probe to function in HeLa nuclear cell extract was also tested (FIG. 14(b). The probe directed against TBP was titrated with its target protein against a background of 250 μg/mL crude HeLa nuclear extract (FIG. 14(b), producing a binding curve similar to that observed in buffer (FIG. 14(b). This binding curve was slightly offset from the curve obtained in buffer. Without being limited to any particular theory, a possible explanation for this shift was that this was a contribution from the endogenous TBP present in cell extract. The TBP transcription factor electrochemical probe provided the convenient quantification of transcription factors in cell extract. The sensor's response in buffer, cell extract and, finally, extract to which a large excess of TBP had been added were measured. These measurements were used to calculate the concentration of TF in the sample, C, via the following relationship: […]

Sequence of TATA binding protein (TBP) (P20226 whole entry, one chain of several): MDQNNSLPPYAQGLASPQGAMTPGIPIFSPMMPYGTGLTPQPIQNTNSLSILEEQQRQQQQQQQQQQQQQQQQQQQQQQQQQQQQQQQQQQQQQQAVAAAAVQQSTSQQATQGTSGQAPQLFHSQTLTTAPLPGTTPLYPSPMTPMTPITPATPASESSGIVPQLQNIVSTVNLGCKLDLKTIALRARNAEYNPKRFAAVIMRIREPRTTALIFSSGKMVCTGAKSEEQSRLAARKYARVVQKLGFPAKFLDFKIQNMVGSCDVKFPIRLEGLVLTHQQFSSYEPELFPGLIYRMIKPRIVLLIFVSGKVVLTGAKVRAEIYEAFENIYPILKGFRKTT

Consider GAATAGGTTCCTATAAAAGGTTGGTTTTATAAACCTATCCTATTC (structured_DNA) [TBP electrochemical probe], for which the binding result is “binds”.
